Test results published in US20040102610A1 (Genentech, published 2004).

T1: GST-hSu(fu) (UniProt Q9UMX1)
T1 sequence: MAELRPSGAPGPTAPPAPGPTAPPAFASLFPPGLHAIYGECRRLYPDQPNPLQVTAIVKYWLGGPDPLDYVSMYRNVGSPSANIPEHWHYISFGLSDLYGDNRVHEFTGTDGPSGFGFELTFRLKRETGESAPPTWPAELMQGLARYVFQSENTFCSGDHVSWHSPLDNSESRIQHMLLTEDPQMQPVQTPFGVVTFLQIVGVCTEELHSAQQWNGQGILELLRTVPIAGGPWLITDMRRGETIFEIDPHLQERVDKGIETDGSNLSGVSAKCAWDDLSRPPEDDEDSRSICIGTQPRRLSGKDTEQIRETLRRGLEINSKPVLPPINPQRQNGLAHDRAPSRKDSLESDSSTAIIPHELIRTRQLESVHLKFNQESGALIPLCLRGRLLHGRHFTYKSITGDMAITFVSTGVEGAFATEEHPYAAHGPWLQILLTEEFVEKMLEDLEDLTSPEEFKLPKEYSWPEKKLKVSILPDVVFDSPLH

T2: hfused C-Flag (human, UniProt Q9NRP7 1-1315)
T2 construct: also called human fused C-Flag
T2 sequence: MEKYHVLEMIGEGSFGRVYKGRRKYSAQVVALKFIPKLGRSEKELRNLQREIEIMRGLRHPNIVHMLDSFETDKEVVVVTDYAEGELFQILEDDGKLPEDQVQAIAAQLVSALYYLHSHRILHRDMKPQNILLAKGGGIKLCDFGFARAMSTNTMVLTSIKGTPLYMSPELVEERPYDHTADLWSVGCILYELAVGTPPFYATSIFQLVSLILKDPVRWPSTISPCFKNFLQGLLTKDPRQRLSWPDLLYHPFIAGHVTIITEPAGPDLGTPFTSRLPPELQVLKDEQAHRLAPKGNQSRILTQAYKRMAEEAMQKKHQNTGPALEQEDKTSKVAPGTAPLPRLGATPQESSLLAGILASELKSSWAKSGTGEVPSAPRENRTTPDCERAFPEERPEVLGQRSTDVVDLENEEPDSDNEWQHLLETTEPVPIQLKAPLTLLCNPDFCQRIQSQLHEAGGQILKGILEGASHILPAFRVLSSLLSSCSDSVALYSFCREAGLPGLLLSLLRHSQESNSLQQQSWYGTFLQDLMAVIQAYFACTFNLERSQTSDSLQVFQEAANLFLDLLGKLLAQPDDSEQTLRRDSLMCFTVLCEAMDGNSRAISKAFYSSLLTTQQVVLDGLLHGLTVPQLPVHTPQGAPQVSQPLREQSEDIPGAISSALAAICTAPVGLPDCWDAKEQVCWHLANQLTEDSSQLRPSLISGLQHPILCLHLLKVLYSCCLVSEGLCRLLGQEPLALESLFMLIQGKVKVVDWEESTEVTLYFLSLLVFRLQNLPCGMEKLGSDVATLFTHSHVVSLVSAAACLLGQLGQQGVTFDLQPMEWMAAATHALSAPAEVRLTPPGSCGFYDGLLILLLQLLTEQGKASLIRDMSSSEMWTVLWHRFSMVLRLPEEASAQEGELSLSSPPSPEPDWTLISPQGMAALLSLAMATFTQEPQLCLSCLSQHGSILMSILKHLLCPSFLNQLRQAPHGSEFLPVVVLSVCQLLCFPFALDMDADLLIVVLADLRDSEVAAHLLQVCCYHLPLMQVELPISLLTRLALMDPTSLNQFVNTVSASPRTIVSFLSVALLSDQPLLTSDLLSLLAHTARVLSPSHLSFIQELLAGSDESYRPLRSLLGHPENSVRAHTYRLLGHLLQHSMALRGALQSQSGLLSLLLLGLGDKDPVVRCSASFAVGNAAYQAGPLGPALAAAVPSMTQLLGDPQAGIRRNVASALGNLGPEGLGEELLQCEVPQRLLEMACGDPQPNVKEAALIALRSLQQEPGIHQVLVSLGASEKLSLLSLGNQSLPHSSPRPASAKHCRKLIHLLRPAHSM

T3: human fused (human, UniProt Q9NRP7 1-1315)
T3 construct: The same id is used for endogenous human fused of 293 cells in the GST-hSu(fu) pull-down; also called hfused; hFu
T3 sequence: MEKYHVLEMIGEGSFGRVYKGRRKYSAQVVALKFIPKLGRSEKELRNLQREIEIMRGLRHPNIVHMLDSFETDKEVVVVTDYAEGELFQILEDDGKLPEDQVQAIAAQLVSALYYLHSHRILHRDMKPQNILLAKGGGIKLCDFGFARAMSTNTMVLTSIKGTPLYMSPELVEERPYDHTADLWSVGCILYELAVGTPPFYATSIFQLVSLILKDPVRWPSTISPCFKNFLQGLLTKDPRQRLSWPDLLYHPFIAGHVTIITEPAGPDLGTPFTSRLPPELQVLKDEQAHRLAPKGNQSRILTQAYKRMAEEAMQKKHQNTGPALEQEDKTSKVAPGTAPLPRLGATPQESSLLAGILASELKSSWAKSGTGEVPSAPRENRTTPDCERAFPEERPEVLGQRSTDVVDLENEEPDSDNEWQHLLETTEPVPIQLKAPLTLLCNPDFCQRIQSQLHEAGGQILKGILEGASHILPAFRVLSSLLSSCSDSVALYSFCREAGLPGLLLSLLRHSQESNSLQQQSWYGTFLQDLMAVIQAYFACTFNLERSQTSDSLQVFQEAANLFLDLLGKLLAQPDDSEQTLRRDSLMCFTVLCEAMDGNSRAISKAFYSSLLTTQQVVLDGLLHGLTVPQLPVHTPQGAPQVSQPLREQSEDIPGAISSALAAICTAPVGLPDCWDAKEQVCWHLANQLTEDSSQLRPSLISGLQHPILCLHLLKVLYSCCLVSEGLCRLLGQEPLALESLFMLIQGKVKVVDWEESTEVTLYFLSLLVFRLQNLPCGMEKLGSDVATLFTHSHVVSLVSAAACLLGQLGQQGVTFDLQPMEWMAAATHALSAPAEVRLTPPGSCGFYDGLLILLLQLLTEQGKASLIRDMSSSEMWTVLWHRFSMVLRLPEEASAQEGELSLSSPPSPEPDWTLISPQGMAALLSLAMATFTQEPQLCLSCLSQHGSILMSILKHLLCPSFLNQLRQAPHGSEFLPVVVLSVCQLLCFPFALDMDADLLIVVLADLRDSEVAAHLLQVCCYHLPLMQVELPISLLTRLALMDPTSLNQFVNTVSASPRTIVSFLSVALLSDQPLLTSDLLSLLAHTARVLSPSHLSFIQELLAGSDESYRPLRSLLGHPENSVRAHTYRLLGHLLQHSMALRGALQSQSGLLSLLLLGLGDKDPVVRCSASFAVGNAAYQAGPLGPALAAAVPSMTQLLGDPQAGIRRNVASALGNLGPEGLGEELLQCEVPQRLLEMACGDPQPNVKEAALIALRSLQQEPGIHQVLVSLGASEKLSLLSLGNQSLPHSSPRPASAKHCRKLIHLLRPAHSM


How the values were obtained:
GST-hSu(fu) = target: T1, GST-hSu(fu)
hfused C-Flag = target: T2, hfused C-Flag; test: 293 cells, anti-Myc or anti-Flag IP, immunoblot
Excerpt: (§1) FIG. 14 describes the biochemical interaction of hFu, hSu(fu) and hGli-1. FIG. 14(A) depicts the interaction of hFu with hSu(fu) in mammalian cells. 293 cells were transfected with hfused and hSu(fu) C-Flag or hfused C-Flag and hSu(fu) C-Myc either alone or in combination. Cell lysates were subjected to anti-Flag immunoprecipitation, and co-precipitating proteins were detected by immunoblotting. FIG. 14(B) depicts the interaction of hfused with hGli-1 in mammalian cells. 293 cells were transfected with hfused C-Flag or N-Myc hGli-1 both alone or in combination, and immunoprecipitated with anti-Myc or anti-Flag antibodies. Proteins were detected by immunoblotting. […] 293 cells were transfected with N-Myc hGli-1, hSu(fu) C-Flag and increasing amounts of hfused. The amount of hfused and hSu(fu) bound to hGli-1 was determined by anti-Myc immunoprecipitation and immunoblotting. Protein expression was analyzed by immunoblotting aliquots of total cell lysates (bottom panel).
(§2) For immunoprecipitation experiments human embryonic kidney 293 cells or C3H10T1/2 cells (ATCC 226-CCL) were transiently transfected with the various expression plasmids in 10 cm plates with lipofectamine (Gibco […]). For every transfection, the total amount of DNA was normalized with an expression plasmid encoding EGFP. […]

human fused = target: T3, human fused; test: FIG. 14C: 293 cells transfected with N-Myc hGli-1, hSu(fu) C-Flag and increasing amounts of hfused
Excerpt: as §1, §2

Molecule	in vitro kinase assay with [γ-32P]ATP (GST-hSu(fu))	binding result (hfused C-Flag)	binding result (human fused)
purified PKAc (Upstate biotechnology)	when tested in vitro, GST-hSu(fu) was highly phosphorylated by purified PKAc	–	–
N-Myc hGli-1 (other, human, UniProt P08151 1-1106, looked up, not shown: small tags and cut ends, Expressed in C3H10T1/2 or 293 cells; also called human Gli-1) MFNSMTPPPISSYGEPCCLRPLPSQGAPSVGTEGLSGPPFCHQANLMSGPHSYGPARETNSCTEGPLFSSPRSAVKLTKKRALSISPLSDASLDLQTVIRTSPSSLVAFINSRCTSPGGSYGHLSIGTMSPSLGFPAQMNHQKGPSPSFGVQPCGPHDSARGGMIPHPQSRGPFPTCQLKSELDMLVGKCREEPLEGDMSSPNSTGIQDPLLGMLDGREDLEREEKREPESVYETDCRWDGCSQEFDSQEQLVHHINSEHIHGERKEFVCHWGGCSRELRPFKAQYMLVVHMRRHTGEKPHKCTFEGCRKSYSRLENLKTHLRSHTGEKPYMCEHEGCSKAFSNASDRAKHQNRTHSNEKPYVCKLPGCTKRYTDPSSLRKHVKTVHGPDAHVTKRHRGDGPLPRAPSISTVEPKREREGGPIREESRLTVPEGAMKPQPSPGAQSSCSSDHSPAGSAANTDSGVEMTGNAGGSTEDLSSLDEGPCIAGTGLSTLRRLENLRLDQLHQLRPIGTRGLKLPSLSHTGTTVSRRVGPPVSLERRSSSSSSISSAYTVSRRSSLASPFPPGSPPENGASSLPGLMPAQHYLLRARYASARGGGTSPTAASSLDRIGGLPMPPWRSRAEYPGYNPNAGVTRRASDPAQAADRPAPARVQRFKSLGCVHTPPTVAGGGQNFDPYLPTSVYSPQPPSITENAAMDARGLQEEPEVGTSMVGSGLNPYMDFPPTDTLGYGGPEGAAAEPYGARGPGSLPLGPGPPTNYGPNPCPQQASYPDPTQETWGEFPSHSGLYPGPKALGGTYSQCPRLEHYGQVQVKPEQGCPVGSDSTGLAPCLNAHPSEGPPHPQPLFSHYPQPSPPQYLQSGPYTQPPPDYLPSEPRPCLDFDSPTHSTGQLKAQLVCNYVQSQQELLWEGGGREDAPAQEPSYQSPKFLGGSQVSPSRAKAPVNTYGPGFGPNLPNHKSGSYPTPSPCHENFVVGANRASHRAAAPPRLLPPLPTCYGPLKVGGTNPSCGHPEVGRLGGGPALYPPPEGQVCNPLDSLDLDNTQLDFVAILDEPQGLSPPPSHDQRGSSGHTPPPSGPPNMAVGNMSVLLRSLPGETEFLNSSA	–	binds	binds
